Values of other authors as cited in paper PMC10404613.

Molecular target: UBC9 (Homo sapiens) (UniProt P63279)
Chain of UniProt P63279 (P63279 2-158): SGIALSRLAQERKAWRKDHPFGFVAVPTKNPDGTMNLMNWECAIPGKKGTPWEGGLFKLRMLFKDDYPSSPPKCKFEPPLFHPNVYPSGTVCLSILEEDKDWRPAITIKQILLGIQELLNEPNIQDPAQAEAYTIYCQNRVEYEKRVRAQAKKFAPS

SUMO1 (from UniProt P63165)
Kd: 100 nM
